Experimental data published in patent publication US20260201064A1 (ISU ABXIS, published 2026).

T1: recombinant human ASM protein (human, UniProt P17405 47-630)
T1 construct: Recombinant human ASM in solution; also called acid sphingomyelinase (ASM) protein
T1 sequence: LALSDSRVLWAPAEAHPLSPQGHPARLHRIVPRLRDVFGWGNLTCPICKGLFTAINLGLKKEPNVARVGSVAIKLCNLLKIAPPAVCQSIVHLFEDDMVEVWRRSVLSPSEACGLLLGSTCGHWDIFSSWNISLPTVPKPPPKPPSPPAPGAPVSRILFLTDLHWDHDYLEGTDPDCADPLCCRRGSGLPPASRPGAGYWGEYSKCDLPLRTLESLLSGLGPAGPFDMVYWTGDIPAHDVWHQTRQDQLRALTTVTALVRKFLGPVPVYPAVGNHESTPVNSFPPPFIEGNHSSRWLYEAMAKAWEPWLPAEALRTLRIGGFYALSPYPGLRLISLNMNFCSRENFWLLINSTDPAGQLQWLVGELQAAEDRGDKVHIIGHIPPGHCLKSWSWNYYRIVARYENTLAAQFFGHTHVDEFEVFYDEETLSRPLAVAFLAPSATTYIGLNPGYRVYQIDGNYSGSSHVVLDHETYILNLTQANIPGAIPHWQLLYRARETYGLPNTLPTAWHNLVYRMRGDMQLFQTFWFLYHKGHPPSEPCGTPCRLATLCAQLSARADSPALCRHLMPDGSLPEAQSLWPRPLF


Biological target: T1, recombinant human ASM protein
Test: BLI (Octet), antibody on AHC sensor
Description: The binding affinity, to the ASM protein, of the produced antibodies specifically binding to the ASM protein and the interactive dynamics therebetween were measured using an Octet® QK384 system (Pall Life Sciences).
First, an antibody specifically binding to the ASM protein produced in Example 1 was captured using an anti-human IgG Fc capture (AHC) biosensor, and 1.25, 2.5, 5, 10, or 20 nM recombinant human ASM protein solution was added thereto. […] The association constant (Kₐ), dissociation constant (Kd), and equilibrium dissociation constant (KD) for each antibody were determined using Octet® analysis software (Pall Life® Sciences). As a result, the binding affinities, to the human ASM protein, of the antibodies with mutations in the heavy chain CDR regions of the antibody #9104 as depicted in Table 1 are shown in Table 5, and the binding affinities, to the human ASM protein, of the antibodies with mutations of the light chain CDR regions in the antibody #9104 as depicted in Table 2 are shown in Table 6.
After the small-scale expression in the ExpiCHO cell line as described above, the binding affinity to the human ASM protein was investigated as described in Experimental Example 1. Specifically, the antibody produced by a combination of #9104v-H33 heavy chain variable region and #9104v-L23 light chain variable region was not expressed and thus excluded in the analysis of binding affinity to ASM protein.

Binder	Kd	koff	kon
#9104a-A1 (antibody, human IgG4 S228P, lambda, V domains shown, VH of #9104v-H10 with VL of #9104v-L20; full-length IgG, lambda) VH: EVQLLESGGGLVQPGGSLRLSCAASGFTFSNYYMSWVRQAPGKGLEWVSGIYYGNGIPYYADSVKDRFTISRDNSKNTLYLQMNSLRAEDTAVYYCARDTPGFDYWGQGTLVTVSS VL: QSVLTQPPSASGTPGQRVTISCTGSSSNIGNNAVNWYQQLPGTAPKLLIYYDMFRPGGVPDRFSGSKSGTSASLAISGLRSEDEADYYCGAWDYSLSAYVFGGGTKLTVLG	0.0518 nM	1.14e-05 s⁻¹	220000 M⁻¹ s⁻¹
#9104a-B5 (antibody, human IgG4 S228P, lambda, V domains shown, VH of #9104v-H19 with VL of #9104v-L21; full-length IgG, lambda) VH: EVQLLESGGGLVQPGGSLRLSCAASGFTFSNYYMSWVRQAPGKGLEWVSGIYYGSGVPYYADSVKGRFTISRDNSKNTLYLQMNSLRAEDTAVYYCARDTPGFDYWGQGTLVTVSS VL: QSVLTQPPSASGTPGQRVTISCTGSSSNIGNNAVNWYQQLPGTAPKLLIYYDMFRPNGVPDRFSGSKSGTSASLAISGLRSEDEADYYCGAWDYSLSAYVFGGGTKLTVLG	< 0.001 nM	< 1e-07 s⁻¹	243000 M⁻¹ s⁻¹
#9104a-A8 (antibody, human IgG4 S228P, lambda, V domains shown, VH of #9104v-H33 with VL of #9104v-L20; full-length IgG, lambda) VH: EVQLLESGGGLVQPGGSLRLSCAASGFTFSNYYMSWVRQAPGKGLEWVSGVYYPSGNPYYADSVKGRFTISRDNSKNTLYLQMNSLRAEDTAVYYCARDTPGFDYWGQGTLVTVSS VL: QSVLTQPPSASGTPGQRVTISCTGSSSNIGNNAVNWYQQLPGTAPKLLIYYDMFRPGGVPDRFSGSKSGTSASLAISGLRSEDEADYYCGAWDYSLSAYVFGGGTKLTVLG	0.237 nM	4.51e-05 s⁻¹	191000 M⁻¹ s⁻¹
#9104a-A7 (antibody, human IgG4 S228P, lambda, V domains shown, VH of #9104v-H31 with VL of #9104v-L20; full-length IgG, lambda) VH: EVQLLESGGGLVQPGGSLRLSCAASGFTFSNYYMSWVRQAPGKGLEWVSGVYYGSGTPYYADSVKGRFTISRDNSKNTLYLQMNSLRAEDTAVYYCARDTPGFDYWGQGTLVTVSS VL: QSVLTQPPSASGTPGQRVTISCTGSSSNIGNNAVNWYQQLPGTAPKLLIYYDMFRPGGVPDRFSGSKSGTSASLAISGLRSEDEADYYCGAWDYSLSAYVFGGGTKLTVLG	0.0354 nM	8.13e-06 s⁻¹	230000 M⁻¹ s⁻¹
#9104a-A5 (antibody, human IgG4 S228P, lambda, V domains shown, VH of #9104v-H19 with VL of #9104v-L20; full-length IgG, lambda) VH: EVQLLESGGGLVQPGGSLRLSCAASGFTFSNYYMSWVRQAPGKGLEWVSGIYYGSGVPYYADSVKGRFTISRDNSKNTLYLQMNSLRAEDTAVYYCARDTPGFDYWGQGTLVTVSS VL: QSVLTQPPSASGTPGQRVTISCTGSSSNIGNNAVNWYQQLPGTAPKLLIYYDMFRPGGVPDRFSGSKSGTSASLAISGLRSEDEADYYCGAWDYSLSAYVFGGGTKLTVLG	0.16 nM	3.93e-05 s⁻¹	246000 M⁻¹ s⁻¹
#9104a-B3 (antibody, human IgG4 S228P, lambda, V domains shown, VH of #9104v-H13 with VL of #9104v-L21; full-length IgG, lambda) VH: EVQLLESGGGLVQPGGSLRLSCAASGFTFSNYYMSWVRQAPGKGLEWVSGIYYGSGIPYYANSVKGRFTISRDNSKNTLYLQMNSLRAEDTAVYYCARDTPGFDYWGQGTLVTVSS VL: QSVLTQPPSASGTPGQRVTISCTGSSSNIGNNAVNWYQQLPGTAPKLLIYYDMFRPNGVPDRFSGSKSGTSASLAISGLRSEDEADYYCGAWDYSLSAYVFGGGTKLTVLG	0.0351 nM	8.23e-06 s⁻¹	234000 M⁻¹ s⁻¹
#9104a-B1 (antibody, human IgG4 S228P, lambda, V domains shown, VH of #9104v-H10 with VL of #9104v-L21; full-length IgG, lambda) VH: EVQLLESGGGLVQPGGSLRLSCAASGFTFSNYYMSWVRQAPGKGLEWVSGIYYGNGIPYYADSVKDRFTISRDNSKNTLYLQMNSLRAEDTAVYYCARDTPGFDYWGQGTLVTVSS VL: QSVLTQPPSASGTPGQRVTISCTGSSSNIGNNAVNWYQQLPGTAPKLLIYYDMFRPNGVPDRFSGSKSGTSASLAISGLRSEDEADYYCGAWDYSLSAYVFGGGTKLTVLG	0.137 nM	3.45e-05 s⁻¹	253000 M⁻¹ s⁻¹
#9104a-A3 (antibody, human IgG4 S228P, lambda, V domains shown, VH of #9104v-H13 with VL of #9104v-L20; full-length IgG, lambda) VH: EVQLLESGGGLVQPGGSLRLSCAASGFTFSNYYMSWVRQAPGKGLEWVSGIYYGSGIPYYANSVKGRFTISRDNSKNTLYLQMNSLRAEDTAVYYCARDTPGFDYWGQGTLVTVSS VL: QSVLTQPPSASGTPGQRVTISCTGSSSNIGNNAVNWYQQLPGTAPKLLIYYDMFRPGGVPDRFSGSKSGTSASLAISGLRSEDEADYYCGAWDYSLSAYVFGGGTKLTVLG	0.0277 nM	5.48e-06 s⁻¹	198000 M⁻¹ s⁻¹
#9104a-B4 (antibody, human IgG4 S228P, lambda, V domains shown, VH of #9104v-H17 with VL of #9104v-L21; full-length IgG, lambda) VH: EVQLLESGGGLVQPGGSLRLSCAASGFTFSNYYMSWVRRAPGKGLEWVSGIYYGSGTPYYAASVKGRFTISRDNSKNTLYLQMNSLRAEDTAVYYCARDTPGFDYWGQGTLVTVSS VL: QSVLTQPPSASGTPGQRVTISCTGSSSNIGNNAVNWYQQLPGTAPKLLIYYDMFRPNGVPDRFSGSKSGTSASLAISGLRSEDEADYYCGAWDYSLSAYVFGGGTKLTVLG	0.153 nM	3.74e-05 s⁻¹	245000 M⁻¹ s⁻¹
#9104a-A2 (antibody, human IgG4 S228P, lambda, V domains shown, VH of #9104v-H11 with VL of #9104v-L20; full-length IgG, lambda) VH: EVQLLESGGGLVQPGGSLRLSCAASGFTFSNYYMSWVRQAPGKGLEWVSGIYYGSGIPYYADSVKERFTISRDNSKNTLYLQMNSLRAEDTAVYYCARDTPGFDYWGQGTLVTVSS VL: QSVLTQPPSASGTPGQRVTISCTGSSSNIGNNAVNWYQQLPGTAPKLLIYYDMFRPGGVPDRFSGSKSGTSASLAISGLRSEDEADYYCGAWDYSLSAYVFGGGTKLTVLG	0.0961 nM	1.98e-05 s⁻¹	206000 M⁻¹ s⁻¹
#9104a-A4 (antibody, human IgG4 S228P, lambda, V domains shown, VH of #9104v-H17 with VL of #9104v-L20; full-length IgG, lambda) VH: EVQLLESGGGLVQPGGSLRLSCAASGFTFSNYYMSWVRRAPGKGLEWVSGIYYGSGTPYYAASVKGRFTISRDNSKNTLYLQMNSLRAEDTAVYYCARDTPGFDYWGQGTLVTVSS VL: QSVLTQPPSASGTPGQRVTISCTGSSSNIGNNAVNWYQQLPGTAPKLLIYYDMFRPGGVPDRFSGSKSGTSASLAISGLRSEDEADYYCGAWDYSLSAYVFGGGTKLTVLG	0.162 nM	3.54e-05 s⁻¹	219000 M⁻¹ s⁻¹
#9104a-B2 (antibody, human IgG4 S228P, lambda, V domains shown, VH of #9104v-H11 with VL of #9104v-L21; full-length IgG, lambda) VH: EVQLLESGGGLVQPGGSLRLSCAASGFTFSNYYMSWVRQAPGKGLEWVSGIYYGSGIPYYADSVKERFTISRDNSKNTLYLQMNSLRAEDTAVYYCARDTPGFDYWGQGTLVTVSS VL: QSVLTQPPSASGTPGQRVTISCTGSSSNIGNNAVNWYQQLPGTAPKLLIYYDMFRPNGVPDRFSGSKSGTSASLAISGLRSEDEADYYCGAWDYSLSAYVFGGGTKLTVLG	0.114 nM	3.03e-05 s⁻¹	266000 M⁻¹ s⁻¹
#9104a-B6 (antibody, human IgG4 S228P, lambda, V domains shown, VH of #9104v-H27 with VL of #9104v-L21; full-length IgG, lambda) VH: EVQLLESGGGLVQPGGSLRLSCAASGFTFSNYYMSWVRQAPGKGLEWVSGTYYDSGYVYYADSVKGRFTISRDNSKNTLYLQMNSLRAEDTAVYYCARDTPGFDYWGQGTLVTVSS VL: QSVLTQPPSASGTPGQRVTISCTGSSSNIGNNAVNWYQQLPGTAPKLLIYYDMFRPNGVPDRFSGSKSGTSASLAISGLRSEDEADYYCGAWDYSLSAYVFGGGTKLTVLG	1.14 nM	9.41e-05 s⁻¹	82900 M⁻¹ s⁻¹
#9104a-A6 (antibody, human IgG4 S228P, lambda, V domains shown, VH of #9104v-H27 with VL of #9104v-L20; full-length IgG, lambda) VH: EVQLLESGGGLVQPGGSLRLSCAASGFTFSNYYMSWVRQAPGKGLEWVSGTYYDSGYVYYADSVKGRFTISRDNSKNTLYLQMNSLRAEDTAVYYCARDTPGFDYWGQGTLVTVSS VL: QSVLTQPPSASGTPGQRVTISCTGSSSNIGNNAVNWYQQLPGTAPKLLIYYDMFRPGGVPDRFSGSKSGTSASLAISGLRSEDEADYYCGAWDYSLSAYVFGGGTKLTVLG	0.768 nM	6.96e-05 s⁻¹	90600 M⁻¹ s⁻¹
